Drawing on patent US20110118447A1, this text covers fold difference in affinity vs original and fold affinity vs original for 14 molecules.

For test [1], the target named is binding partner of C5A (XPA23). As to the kind of experiment: Biacore. In general terms: Surface plasmon resonance follows binding to a sensor surface in real time, without labels.
The target in test [2] is binding partner of C5A (XPA23). As to the kind of experiment: Biacore, K-off.

B1: C5A (XPA23) VH Y101T (antibody, V domains shown)
VH: EVQLLESGGGLVQPGGSLRLSCAASGFTFSKYFMFWVRQAPGKGLEWVSVISPSGGMTRYADSVKGRFTISRDNSKNTLYLQMNSLRAEDTAVYYCARVGTGGNSDYWGQGTLVTVSS
VL: DIQMTQSPSSVSASVGDRLTIICRASQDINRWLAWYQQTPGNAPKLLIHSATSLQSGVPSRFSGSGSGTDFTLTINSLQPEDFATYYCQQADSFPLTFGGGTKVEIK
On to B1, for which the fold difference in affinity vs original in test [1] and in test [2] was 0.06 fold throughout.

B2: C5A (XPA23) VH N104T (antibody, V domains shown)
VH: EVQLLESGGGLVQPGGSLRLSCAASGFTFSKYFMFWVRQAPGKGLEWVSVISPSGGMTRYADSVKGRFTISRDNSKNTLYLQMNSLRAEDTAVYYCARVGYGGTSDYWGQGTLVTVSS
VL: DIQMTQSPSSVSASVGDRLTIICRASQDINRWLAWYQQTPGNAPKLLIHSATSLQSGVPSRFSGSGSGTDFTLTINSLQPEDFATYYCQQADSFPLTFGGGTKVEIK
Take B2: the fold difference in affinity vs original in test [1] and in test [2] was 0.95 fold throughout.

B3: C5A (XPA23) VH N104S (antibody, V domains shown)
VH: EVQLLESGGGLVQPGGSLRLSCAASGFTFSKYFMFWVRQAPGKGLEWVSVISPSGGMTRYADSVKGRFTISRDNSKNTLYLQMNSLRAEDTAVYYCARVGYGGSSDYWGQGTLVTVSS
VL: DIQMTQSPSSVSASVGDRLTIICRASQDINRWLAWYQQTPGNAPKLLIHSATSLQSGVPSRFSGSGSGTDFTLTINSLQPEDFATYYCQQADSFPLTFGGGTKVEIK
As for B3, the fold affinity vs original in test [1] amounted to 1.02 fold. In addition, the fold difference in affinity vs original in test [2] was determined as 1.02 fold.

B4: C5A (XPA23) VH Y101Q (antibody, V domains shown)
VH: EVQLLESGGGLVQPGGSLRLSCAASGFTFSKYFMFWVRQAPGKGLEWVSVISPSGGMTRYADSVKGRFTISRDNSKNTLYLQMNSLRAEDTAVYYCARVGQGGNSDYWGQGTLVTVSS
VL: DIQMTQSPSSVSASVGDRLTIICRASQDINRWLAWYQQTPGNAPKLLIHSATSLQSGVPSRFSGSGSGTDFTLTINSLQPEDFATYYCQQADSFPLTFGGGTKVEIK
In the case of B4, the fold affinity vs original in test [1] is 0.06 fold. The fold difference in affinity vs original in test [2] was found to be 0.06 fold.

B5: C5A (XPA23) VH D106E (antibody, V domains shown)
VH: EVQLLESGGGLVQPGGSLRLSCAASGFTFSKYFMFWVRQAPGKGLEWVSVISPSGGMTRYADSVKGRFTISRDNSKNTLYLQMNSLRAEDTAVYYCARVGYGGNSEYWGQGTLVTVSS
VL: DIQMTQSPSSVSASVGDRLTIICRASQDINRWLAWYQQTPGNAPKLLIHSATSLQSGVPSRFSGSGSGTDFTLTINSLQPEDFATYYCQQADSFPLTFGGGTKVEIK
Turning to B5, the fold affinity vs original in test [1] worked out at 0.04 fold. For the same molecule, in test [2], the fold difference in affinity vs original came to 0.04 fold.

B6: C5A (XPA23) VH S105E (antibody, V domains shown)
VH: EVQLLESGGGLVQPGGSLRLSCAASGFTFSKYFMFWVRQAPGKGLEWVSVISPSGGMTRYADSVKGRFTISRDNSKNTLYLQMNSLRAEDTAVYYCARVGYGGNEDYWGQGTLVTVSS
VL: DIQMTQSPSSVSASVGDRLTIICRASQDINRWLAWYQQTPGNAPKLLIHSATSLQSGVPSRFSGSGSGTDFTLTINSLQPEDFATYYCQQADSFPLTFGGGTKVEIK
For the molecule B6, the fold affinity vs original in test [1] was determined as 1.17 fold. The fold difference in affinity vs original in test [2] was 1.17 fold.

B7: C5A (XPA23) VH S105Q (antibody, V domains shown)
VH: EVQLLESGGGLVQPGGSLRLSCAASGFTFSKYFMFWVRQAPGKGLEWVSVISPSGGMTRYADSVKGRFTISRDNSKNTLYLQMNSLRAEDTAVYYCARVGYGGNQDYWGQGTLVTVSS
VL: DIQMTQSPSSVSASVGDRLTIICRASQDINRWLAWYQQTPGNAPKLLIHSATSLQSGVPSRFSGSGSGTDFTLTINSLQPEDFATYYCQQADSFPLTFGGGTKVEIK
As for B7, the fold affinity vs original in test [1] worked out at 0.98 fold. Besides, in test [2], the fold difference in affinity vs original amounted to 0.98 fold.

B8: C5A (XPA23) VH S105T (antibody, V domains shown)
VH: EVQLLESGGGLVQPGGSLRLSCAASGFTFSKYFMFWVRQAPGKGLEWVSVISPSGGMTRYADSVKGRFTISRDNSKNTLYLQMNSLRAEDTAVYYCARVGYGGNTDYWGQGTLVTVSS
VL: DIQMTQSPSSVSASVGDRLTIICRASQDINRWLAWYQQTPGNAPKLLIHSATSLQSGVPSRFSGSGSGTDFTLTINSLQPEDFATYYCQQADSFPLTFGGGTKVEIK
Regarding B8, the fold difference in affinity vs original in test [1] and in test [2] was 0.11 fold each time.

B9: C5A (XPA23) VH N104Q (antibody, V domains shown)
VH: EVQLLESGGGLVQPGGSLRLSCAASGFTFSKYFMFWVRQAPGKGLEWVSVISPSGGMTRYADSVKGRFTISRDNSKNTLYLQMNSLRAEDTAVYYCARVGYGGQSDYWGQGTLVTVSS
VL: DIQMTQSPSSVSASVGDRLTIICRASQDINRWLAWYQQTPGNAPKLLIHSATSLQSGVPSRFSGSGSGTDFTLTINSLQPEDFATYYCQQADSFPLTFGGGTKVEIK
For the molecule B9, in test [1], the fold affinity vs original is 0.03 fold. For the same molecule, the fold difference in affinity vs original in test [2] came to 0.03 fold.

B10: C5A (XPA23) VH S105N (antibody, V domains shown)
VH: EVQLLESGGGLVQPGGSLRLSCAASGFTFSKYFMFWVRQAPGKGLEWVSVISPSGGMTRYADSVKGRFTISRDNSKNTLYLQMNSLRAEDTAVYYCARVGYGGNNDYWGQGTLVTVSS
VL: DIQMTQSPSSVSASVGDRLTIICRASQDINRWLAWYQQTPGNAPKLLIHSATSLQSGVPSRFSGSGSGTDFTLTINSLQPEDFATYYCQQADSFPLTFGGGTKVEIK
As for B10, the fold affinity vs original in test [1] is 0.85 fold. Moreover, the fold difference in affinity vs original in test [2] was found to be 0.85 fold.

B11: C5A (XPA23) VH S105H (antibody, V domains shown)
VH: EVQLLESGGGLVQPGGSLRLSCAASGFTFSKYFMFWVRQAPGKGLEWVSVISPSGGMTRYADSVKGRFTISRDNSKNTLYLQMNSLRAEDTAVYYCARVGYGGNHDYWGQGTLVTVSS
VL: DIQMTQSPSSVSASVGDRLTIICRASQDINRWLAWYQQTPGNAPKLLIHSATSLQSGVPSRFSGSGSGTDFTLTINSLQPEDFATYYCQQADSFPLTFGGGTKVEIK
On to B11, for which the fold affinity vs original in test [1] was 0.05 fold. In addition, the fold difference in affinity vs original in test [2] was determined as 0.05 fold.

B12: C5A (XPA23) VH N104H (antibody, V domains shown)
VH: EVQLLESGGGLVQPGGSLRLSCAASGFTFSKYFMFWVRQAPGKGLEWVSVISPSGGMTRYADSVKGRFTISRDNSKNTLYLQMNSLRAEDTAVYYCARVGYGGHSDYWGQGTLVTVSS
VL: DIQMTQSPSSVSASVGDRLTIICRASQDINRWLAWYQQTPGNAPKLLIHSATSLQSGVPSRFSGSGSGTDFTLTINSLQPEDFATYYCQQADSFPLTFGGGTKVEIK
As for B12, the fold affinity vs original in test [1] amounted to 0.07 fold. Also, the fold difference in affinity vs original in test [2] worked out at 0.07 fold.

B13: C5A (XPA23) VH G102N (antibody, V domains shown)
VH: EVQLLESGGGLVQPGGSLRLSCAASGFTFSKYFMFWVRQAPGKGLEWVSVISPSGGMTRYADSVKGRFTISRDNSKNTLYLQMNSLRAEDTAVYYCARVGYNGNSDYWGQGTLVTVSS
VL: DIQMTQSPSSVSASVGDRLTIICRASQDINRWLAWYQQTPGNAPKLLIHSATSLQSGVPSRFSGSGSGTDFTLTINSLQPEDFATYYCQQADSFPLTFGGGTKVEIK
On to B13, for which the fold affinity vs original in test [1] is 1.17 fold. In test [2], the fold difference in affinity vs original came out at 1.17 fold.

B14: C5A (XPA23) VH Y101N (antibody, V domains shown)
VH: EVQLLESGGGLVQPGGSLRLSCAASGFTFSKYFMFWVRQAPGKGLEWVSVISPSGGMTRYADSVKGRFTISRDNSKNTLYLQMNSLRAEDTAVYYCARVGNGGNSDYWGQGTLVTVSS
VL: DIQMTQSPSSVSASVGDRLTIICRASQDINRWLAWYQQTPGNAPKLLIHSATSLQSGVPSRFSGSGSGTDFTLTINSLQPEDFATYYCQQADSFPLTFGGGTKVEIK
On to B14, for which the fold affinity vs original in test [1] amounted to 0.06 fold. Moreover, the fold difference in affinity vs original in test [2] was 0.06 fold.
